Drawing on patent US20110206616A1, this text covers cleavage of intracellular SNAP 25 (none detectable for one substance.

The target in the assay is SNAP 25 (endogenous, rat neuronal cells) (rat) (UniProt P60881). Put plainly: cell-based or functional assay.
UniProt P60881, sequence (P60881 whole entry): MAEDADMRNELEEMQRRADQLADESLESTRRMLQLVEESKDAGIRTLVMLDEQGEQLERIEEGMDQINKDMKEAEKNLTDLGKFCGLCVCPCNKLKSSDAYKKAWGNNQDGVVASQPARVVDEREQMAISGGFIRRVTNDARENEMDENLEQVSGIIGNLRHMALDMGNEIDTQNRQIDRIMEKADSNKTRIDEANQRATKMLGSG

The substance “BoNT/Aad^ek, AcTEV- and enterokinase-processed disulfide-bonded LC-HC heterodimer (from UniProt P0DPI1 2-449; P0DPI0 449-1296)” had a cleavage of intracellular SNAP 25 (none detectable at the concentration tested) of 500 nM.
